Assay results: patent US20060264369, “Aptamers to von Willebrand Factor and their use as thrombotic disease therapeutics” (published 2006)
Where a chain is given by its changes, count along the chain named.

B1: AMX237.F10 (ssDNA)
DNA: CTACCTACGATCTGACTAGCGTGCAGTGCCCATTCCAGGCCGTGCGGTATCCTCCGTCACGCTTACTCTCATGTAGTTCC
B2: AMX236.H2 (ssDNA)
DNA: B1 DNA with C31T, T34C, T50G
B3: AMX237.C5 (ssDNA)
DNA: B1 DNA with C31T, T34C, C35T
B4: AMX200.G11 (ssDNA)
DNA: CTACCTACGATCTGACTAGCGGAACGAGAATGCTGATGGATTGCTCAGGTCTGCTGGCTGCTTACTCTCATGTAGTTCC
B5: AMX200.B8 (ssDNA)
DNA: B4 DNA with C25T, C33T, A36G
B6: AMX200.A7 (ssDNA)
DNA: B4 DNA with C25T, C44T
B7: AMX200.D11 (ssDNA)
DNA: B4 DNA with C25T, G26A
B8: AMX200.F9 (ssDNA)
DNA: B4 DNA with C25T, A29G, C44G
B9: AMX200.B9 (ssDNA)
DNA: B4 DNA with C25T, G57A
B10: AMX200.B1 (ssDNA)
DNA: B4 DNA with C25T, T45C
B11: AMX200.E8 (ssDNA)
DNA: B4 DNA with C25T, A29G, A36G, C54T
B12: AMX200.D8 (ssDNA)
DNA: B4 DNA with C25T, C33T
B13: AMX236.H1 (ssDNA)
DNA: CTACCTACGATCTGACTAGCCTCAGATTGACTCCGGCCGACTTGTTTTAATCTTCTGAGTGCTTACTCTCATGTAGTTCC
B14: AMX236.G1 (ssDNA)
DNA: B13 DNA with C38T
B15: AMX238.E7 (ssDNA)
DNA: CTACCTACGATCTGACTAGCGTGCAGTGCCTATTTTAGGCCGTGCGGTGCCTCCGTCACGCTTACTCTCATGTAGTTCC
B16: AMX237.C11 (ssDNA)
DNA: B15 DNA with T35C, C59T
B17: AMX238.F2 (ssDNA)
DNA: B15 DNA with G21A, T31C, T35C, C59T
B18: AMX238.F3 (ssDNA)
DNA: B15 DNA with C40T, T48G
B19: AMX237.F9 (ssDNA)
DNA: CTACCTACGATCTGACTAGCTTGGTAGCGATTCTGTGGAGCTGCGGTTTGGTCGACGTCAGCTTACTCTCATGTAGTTCC
B20: AMX236.A12 (ssDNA)
DNA: B19 DNA with T31C
B21: AMX237.C9 (ssDNA)
DNA: B19 DNA with C28T, T31C, C33T
B22: AMX237.B1 (ssDNA)
DNA: B19 DNA with T31C, T32A, T34A
B23: AMX236.A11 (ssDNA)
DNA: B19 DNA with T31C, T48C, T52C
B24: AMX237.G7 (ssDNA)
DNA: B19 DNA with T31C, C33T
B25: AMX236.G4 (ssDNA)
DNA: B19 DNA with T31C, C33T, C41A, C53T
B26: AMX237.D5 (ssDNA)
DNA: B19 DNA with T31C, T32A, C53T
B27: AMX236.B8 (ssDNA)
DNA: B19 DNA with T31C, T48C
B28: AMX237.F12 (ssDNA)
DNA: B19 DNA with C33T
B29: AMX236.C12 (ssDNA)
DNA: B19 DNA with T31C, T34C
B30: AMX237.H10 (ssDNA)
DNA: B19 DNA with T31C, T34A, T36A
B31: AMX238.G4 (ssDNA)
DNA: CTACCTACGATCTGACTAGCTTGTCGCACTTTTGGTTGGTCTGGTTGGTTCTAAGTGCGCTTACTCTCATGTAGTTCC
B32: AMX199.G5 (ssDNA)
DNA: CTACCTACGATCTGACTAGCGAAACACTAGGTTGGTTAGGATTGGTGTGTTCCCGCCCTGCTTACTCTCATGTAGTTCC
B33: AMX237.C4 (ssDNA)
DNA: CTACCTACGATCTGACTAGCTTTCAGTCTTCCACATTTATAGGGTTTGGCATTGGGTCTGGCTTACTCTCATGTAGTTCC
B34: AMX237.E5 (ssDNA)
DNA: B33 DNA with C32T
B35: AMX238.H11 (ssDNA)
DNA: B33 DNA with C31T
B36: AMX237.G2 (ssDNA)
DNA: B33 DNA with C31T, C34T
B37: AMX237.F1 (ssDNA)
DNA: B33 DNA with A35G
B38: AMX237.F5 (ssDNA)
DNA: B33 DNA with C24T
B39: AMX237.E9 (ssDNA)
DNA: CTACCTACGATCTGACTAGCTCCAGTGTTTTGTCTAATAACCGTGCGGTGCCTCCGTGAGCTTACTCTCATGTAGTTCC
B40: AMX237.A2 (ssDNA)
DNA: B39 DNA with T31C, G32A, T35C
B41: AMX238.D8 (ssDNA)
DNA: B39 DNA with G32A, T35C, T38C
B42: AMX237.E2 (ssDNA)
DNA: B39 DNA with T31C, G32A
B43: AMX237.B4 (ssDNA)
DNA: B39 DNA with T31C, G32A, T35C, C52T
B44: AMX238.G5 (ssDNA)
DNA: B39 DNA with G32A, C34T, T35C
B45: AMX237.B11 (ssDNA)
DNA: B39 DNA with G32A
B46: AMX237.A11 (ssDNA)
DNA: B39 DNA with G32A, T35C
B47: AMX238.D12 (ssDNA)
DNA: B39 DNA with T31C, G32A, C34T, T35C
B48: AMX237.H5 (ssDNA)
DNA: B39 DNA with T31C, G32A, C34T
B49: AMX238.D5 (ssDNA)
DNA: B39 DNA with G32A, C34T, T35C, C51T
B50: AMX236.B3 (ssDNA)
DNA: CTACCTACGATCTGACTAGCCTTACCTATTCCCTTCTGCGGAATACGTCGAGTACTATGCTTACTCTCATGTAGTTCC

Columns and labels:
[1] = biological target: von Willebrand factor full length (Homo sapiens, UniProt P04275 SEQ:764-2813); assay: filter; 20 nM protein; details: tags: Calbiochem 681300
Procedure: When a significant positive ratio of binding of DNA in the presence of human or rabbit vWF A1 domain versus in the absence of protein was seen, the pools were cloned using the TOPO TA cloning kit (Invitrogen Cat.# 45-0641, Carlsbad, Calif.) according to the manufacturer's instructions. […] All unique clones were assayed twice in a 3-point dot blot screen (no protein target control, 20 nM full length human vWF (Calbiochem Cat.# 681300, La Jolla, Calif.), or 20 nM rabbit vWF A1 domain. The data is presented in the third and fourth columns of Table 17 below as the ratio of the fraction of the aptamer bound to the nitrocellulose in the presence of the target protein to the fraction of aptamer bound in the absence of the target protein.

[2] = biological target: von Willebrand factor A1 domain (human) (Homo sapiens, UniProt P04275 SEQ:13-246); assay: filter; 100 nM protein
Procedure: All unique clones were assayed in a 3-point dot blot screen (no protein target control, 100 nM human vWF A1 domain (SEQ ID NO 5), or 100 nM rabbit vWF A1 domain (SEQ ID NO 6). The data are presented in the third and fourth columns of Table 14 below as the ratio of the fraction of the aptamer bound to the nitrocellulose in the presence of the target protein to the fraction of aptamer bound in the absence of the target protein.

Row | Binder | binding signal [1] | binding signal [2]
1 | B1 | 2.9 ratio to no protein | –
2 | B2 | 2.12 ratio to no protein | –
3 | B3 | 2.55 ratio to no protein | –
4 | B4 | – | 1.73 ratio to no protein
5 | B5 | – | 4.13 ratio to no protein
6 | B6 | – | 0.97 ratio to no protein
7 | B7 | – | 3.34 ratio to no protein
8 | B8 | – | 0.97 ratio to no protein
9 | B9 | – | 2.54 ratio to no protein
10 | B10 | – | 4.01 ratio to no protein
11 | B11 | – | 1.04 ratio to no protein
12 | B12 | – | 2.86 ratio to no protein
13 | B13 | 1.1 ratio to no protein | –
14 | B14 | 1.47 ratio to no protein | –
15 | B15 | 3.02 ratio to no protein | –
16 | B16 | 2.04 ratio to no protein | –
17 | B17 | 2.84 ratio to no protein | –
18 | B18 | 2.83 ratio to no protein | –
19 | B19 | 2.21 ratio to no protein | –
20 | B20 | 2.64 ratio to no protein | –
21 | B21 | 2.05 ratio to no protein | –
22 | B22 | 2 ratio to no protein | –
23 | B23 | 2.02 ratio to no protein | –
24 | B24 | 2.68 ratio to no protein | –
25 | B25 | 1.7 ratio to no protein | –

Row | Binder | binding signal [1] | binding signal [2]
26 | B26 | 1.41 ratio to no protein | –
27 | B27 | 1.66 ratio to no protein | –
28 | B28 | 1.95 ratio to no protein | –
29 | B29 | 1.99 ratio to no protein | –
30 | B30 | 1.71 ratio to no protein | –
31 | B31 | 1.09 ratio to no protein | –
32 | B32 | – | 1.41 ratio to no protein
33 | B33 | 0.97 ratio to no protein | –
34 | B34 | 0.97 ratio to no protein | –
35 | B35 | 0.98 ratio to no protein | –
36 | B36 | 1.02 ratio to no protein | –
37 | B37 | 0.98 ratio to no protein | –
38 | B38 | 0.99 ratio to no protein | –
39 | B39 | 2.13 ratio to no protein | –
40 | B40 | 2.6 ratio to no protein | –
41 | B41 | 2.02 ratio to no protein | –
42 | B42 | 1.61 ratio to no protein | –
43 | B43 | 1.42 ratio to no protein | –
44 | B44 | 3.06 ratio to no protein | –
45 | B45 | 2.87 ratio to no protein | –
46 | B46 | 2.66 ratio to no protein | –
47 | B47 | 2.4 ratio to no protein | –
48 | B48 | 1.63 ratio to no protein | –
49 | B49 | 1.46 ratio to no protein | –
50 | B50 | 1.54 ratio to no protein | –
